{"source": "paper PMC8367650", "target": "IdeS FabRICATOR enzyme", "experiment": "SEC"}
{"substance": "IdeS FabRICATOR enzyme", "values": [{"measurement": "stoichiometry N", "result": 2}]}
